According to US20180009871A1 (INTARCIA THERAPEUTICS, published 2018):
Where no end group is shown, it is not given here. [ ]: non-standard residue; d: D form. Aib = CC(C)(N)C(=O)O

B1: Compound A59 (peptide)
peptide: YSHGTFTSDYSKYLD[Aib]KRAQEFV[Aib]WLEDEPSSKQPPPS-OH
modifications: N-terminus assumed
SMILES: CC(C)C[C@H](NC(=O)[C@H](Cc1ccc(O)cc1)NC(=O)[C@H](CCCCN)NC(=O)[C@H](CO)NC(=O)[C@H](Cc1ccc(O)cc1)NC(=O)[C@H](CC(=O)O)NC(=O)[C@H](CO)NC(=O)[C@@H](NC(=O)[C@H](Cc1ccccc1)NC(=O)[C@@H](NC(=O)CNC(=O)[C@H](Cc1c[nH]cn1)NC(=O)[C@H](CO)NC(=O)[C@@H](N)Cc1ccc(O)cc1)[C@@H](C)O)[C@@H](C)O)C(=O)N[C@@H](CC(=O)O)C(=O)NC(C)(C)C(=O)N[C@@H](CCCCN)C(=O)N[C@@H](CCCNC(=N)N)C(=O)N[C@@H](C)C(=O)N[C@@H](CCC(N)=O)C(=O)N[C@@H](CCC(=O)O)C(=O)N[C@@H](Cc1ccccc1)C(=O)N[C@H](C(=O)NC(C)(C)C(=O)N[C@@H](Cc1c[nH]c2ccccc12)C(=O)N[C@@H](CC(C)C)C(=O)N[C@@H](CCC(=O)O)C(=O)N[C@@H](CC(=O)O)C(=O)N[C@@H](CCC(=O)O)C(=O)N1CCC[C@H]1C(=O)N[C@@H](CO)C(=O)N[C@@H](CO)C(=O)N[C@@H](CCCCN)C(=O)N[C@@H](CCC(N)=O)C(=O)N1CCC[C@H]1C(=O)N1CCC[C@H]1C(=O)N1CCC[C@H]1C(=O)N[C@@H](CO)C(=O)O)C(C)C
B2: Compound A56 (peptide)
peptide: YSHGTFTSDYSKYLD[Aib]KRAQEFV[Aib]WLEDEPKSKAPPPS-OH
modifications: N-terminus assumed
SMILES: CC(C)C[C@H](NC(=O)[C@H](Cc1ccc(O)cc1)NC(=O)[C@H](CCCCN)NC(=O)[C@H](CO)NC(=O)[C@H](Cc1ccc(O)cc1)NC(=O)[C@H](CC(=O)O)NC(=O)[C@H](CO)NC(=O)[C@@H](NC(=O)[C@H](Cc1ccccc1)NC(=O)[C@@H](NC(=O)CNC(=O)[C@H](Cc1c[nH]cn1)NC(=O)[C@H](CO)NC(=O)[C@@H](N)Cc1ccc(O)cc1)[C@@H](C)O)[C@@H](C)O)C(=O)N[C@@H](CC(=O)O)C(=O)NC(C)(C)C(=O)N[C@@H](CCCCN)C(=O)N[C@@H](CCCNC(=N)N)C(=O)N[C@@H](C)C(=O)N[C@@H](CCC(N)=O)C(=O)N[C@@H](CCC(=O)O)C(=O)N[C@@H](Cc1ccccc1)C(=O)N[C@H](C(=O)NC(C)(C)C(=O)N[C@@H](Cc1c[nH]c2ccccc12)C(=O)N[C@@H](CC(C)C)C(=O)N[C@@H](CCC(=O)O)C(=O)N[C@@H](CC(=O)O)C(=O)N[C@@H](CCC(=O)O)C(=O)N1CCC[C@H]1C(=O)N[C@@H](CCCCN)C(=O)N[C@@H](CO)C(=O)N[C@@H](CCCCN)C(=O)N[C@@H](C)C(=O)N1CCC[C@H]1C(=O)N1CCC[C@H]1C(=O)N1CCC[C@H]1C(=O)N[C@@H](CO)C(=O)O)C(C)C
B3: Compound A58 (peptide)
peptide: YSHGTFTSDYSKYLD[Aib]KRAQEFV[Aib]WLEDEPKSKSPPPS-OH
modifications: N-terminus assumed
SMILES: CC(C)C[C@H](NC(=O)[C@H](Cc1ccc(O)cc1)NC(=O)[C@H](CCCCN)NC(=O)[C@H](CO)NC(=O)[C@H](Cc1ccc(O)cc1)NC(=O)[C@H](CC(=O)O)NC(=O)[C@H](CO)NC(=O)[C@@H](NC(=O)[C@H](Cc1ccccc1)NC(=O)[C@@H](NC(=O)CNC(=O)[C@H](Cc1c[nH]cn1)NC(=O)[C@H](CO)NC(=O)[C@@H](N)Cc1ccc(O)cc1)[C@@H](C)O)[C@@H](C)O)C(=O)N[C@@H](CC(=O)O)C(=O)NC(C)(C)C(=O)N[C@@H](CCCCN)C(=O)N[C@@H](CCCNC(=N)N)C(=O)N[C@@H](C)C(=O)N[C@@H](CCC(N)=O)C(=O)N[C@@H](CCC(=O)O)C(=O)N[C@@H](Cc1ccccc1)C(=O)N[C@H](C(=O)NC(C)(C)C(=O)N[C@@H](Cc1c[nH]c2ccccc12)C(=O)N[C@@H](CC(C)C)C(=O)N[C@@H](CCC(=O)O)C(=O)N[C@@H](CC(=O)O)C(=O)N[C@@H](CCC(=O)O)C(=O)N1CCC[C@H]1C(=O)N[C@@H](CCCCN)C(=O)N[C@@H](CO)C(=O)N[C@@H](CCCCN)C(=O)N[C@@H](CO)C(=O)N1CCC[C@H]1C(=O)N1CCC[C@H]1C(=O)N1CCC[C@H]1C(=O)N[C@@H](CO)C(=O)O)C(C)C
B4: Compound A55 (peptide)
peptide: YSHGTFTSDYSKYLD[Aib]KRAQEFV[Aib]WLEDEPSSKSPPPS-OH
modifications: N-terminus assumed
SMILES: CC(C)C[C@H](NC(=O)[C@H](Cc1ccc(O)cc1)NC(=O)[C@H](CCCCN)NC(=O)[C@H](CO)NC(=O)[C@H](Cc1ccc(O)cc1)NC(=O)[C@H](CC(=O)O)NC(=O)[C@H](CO)NC(=O)[C@@H](NC(=O)[C@H](Cc1ccccc1)NC(=O)[C@@H](NC(=O)CNC(=O)[C@H](Cc1c[nH]cn1)NC(=O)[C@H](CO)NC(=O)[C@@H](N)Cc1ccc(O)cc1)[C@@H](C)O)[C@@H](C)O)C(=O)N[C@@H](CC(=O)O)C(=O)NC(C)(C)C(=O)N[C@@H](CCCCN)C(=O)N[C@@H](CCCNC(=N)N)C(=O)N[C@@H](C)C(=O)N[C@@H](CCC(N)=O)C(=O)N[C@@H](CCC(=O)O)C(=O)N[C@@H](Cc1ccccc1)C(=O)N[C@H](C(=O)NC(C)(C)C(=O)N[C@@H](Cc1c[nH]c2ccccc12)C(=O)N[C@@H](CC(C)C)C(=O)N[C@@H](CCC(=O)O)C(=O)N[C@@H](CC(=O)O)C(=O)N[C@@H](CCC(=O)O)C(=O)N1CCC[C@H]1C(=O)N[C@@H](CO)C(=O)N[C@@H](CO)C(=O)N[C@@H](CCCCN)C(=O)N[C@@H](CO)C(=O)N1CCC[C@H]1C(=O)N1CCC[C@H]1C(=O)N1CCC[C@H]1C(=O)N[C@@H](CO)C(=O)O)C(C)C
B5: Compound A57 (peptide)
peptide: YSHGTFTSDYSKYLD[Aib]KRAQEFV[Aib]WLEDEPKSKQPPPS-OH
modifications: N-terminus assumed
SMILES: CC(C)C[C@H](NC(=O)[C@H](Cc1ccc(O)cc1)NC(=O)[C@H](CCCCN)NC(=O)[C@H](CO)NC(=O)[C@H](Cc1ccc(O)cc1)NC(=O)[C@H](CC(=O)O)NC(=O)[C@H](CO)NC(=O)[C@@H](NC(=O)[C@H](Cc1ccccc1)NC(=O)[C@@H](NC(=O)CNC(=O)[C@H](Cc1c[nH]cn1)NC(=O)[C@H](CO)NC(=O)[C@@H](N)Cc1ccc(O)cc1)[C@@H](C)O)[C@@H](C)O)C(=O)N[C@@H](CC(=O)O)C(=O)NC(C)(C)C(=O)N[C@@H](CCCCN)C(=O)N[C@@H](CCCNC(=N)N)C(=O)N[C@@H](C)C(=O)N[C@@H](CCC(N)=O)C(=O)N[C@@H](CCC(=O)O)C(=O)N[C@@H](Cc1ccccc1)C(=O)N[C@H](C(=O)NC(C)(C)C(=O)N[C@@H](Cc1c[nH]c2ccccc12)C(=O)N[C@@H](CC(C)C)C(=O)N[C@@H](CCC(=O)O)C(=O)N[C@@H](CC(=O)O)C(=O)N[C@@H](CCC(=O)O)C(=O)N1CCC[C@H]1C(=O)N[C@@H](CCCCN)C(=O)N[C@@H](CO)C(=O)N[C@@H](CCCCN)C(=O)N[C@@H](CCC(N)=O)C(=O)N1CCC[C@H]1C(=O)N1CCC[C@H]1C(=O)N1CCC[C@H]1C(=O)N[C@@H](CO)C(=O)O)C(C)C

Tests used:
[1] = biological target: human GLP-1 receptor (GLP-1R) (human, UniProt P43220 24-463); assay: cell-based or functional assay
[2] = biological target: human glucagon receptor (GCGR) (human, UniProt P47871 26-477); assay: cell-based or functional assay

Sequence of human GLP-1 receptor (GLP-1R) (P43220 24-463): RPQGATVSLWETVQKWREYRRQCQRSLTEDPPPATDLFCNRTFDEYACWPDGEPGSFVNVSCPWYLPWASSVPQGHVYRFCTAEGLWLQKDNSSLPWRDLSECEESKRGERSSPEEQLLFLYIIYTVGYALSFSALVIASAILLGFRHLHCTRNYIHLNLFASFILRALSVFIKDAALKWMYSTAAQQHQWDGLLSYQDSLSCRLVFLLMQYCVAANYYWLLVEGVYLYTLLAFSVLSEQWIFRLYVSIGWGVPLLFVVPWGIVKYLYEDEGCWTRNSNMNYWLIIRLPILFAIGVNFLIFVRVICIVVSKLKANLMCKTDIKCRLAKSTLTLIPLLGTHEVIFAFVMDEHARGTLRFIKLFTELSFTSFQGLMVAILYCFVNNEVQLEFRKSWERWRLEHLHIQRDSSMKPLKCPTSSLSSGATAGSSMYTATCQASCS

Row | Binder | hGLP1 pEC50 (cAMP) [1] [pEC50] | hGCGR pEC50 (cAMP) [2] [pEC50]
1 | B1 | < 9 | 12.2
2 | B2 | < 9 | 12.3
3 | B3 | < 9 | 12.2
4 | B4 | < 9 | 12.2
5 | B5 | < 9 | 12
